By stoichiometry N is commonly meant a count of units in the complex or per binding partner.

The source of these data is paper PMC4254802.

Common to all, as to experiment: cross-linking
For assay [1], the target named is endogenous ADAM10 of Cα cells (Chinese hamster (endogenous in Cα/CHO cells)).
For assay [2], the target named is TACE-B/ADAM10cyto (truncated human TACE with the cytoplasmic domain of ADAM10), Flag-tagged (human) (UniProt O14672).
For assay [3], the target named is endogenous TACE of Cα cells (CHO cells that express TGF-α) (Chinese hamster (endogenous in Cα/CHO cells)).

endogenous ADAM10 of Cα cells (enzyme): the stoichiometry N in assay [1] was found to be 2.
The substance “TACE-B/ADAM10cyto (truncated human TACE with the cytoplasmic domain of ADAM10), Flag-tagged (from UniProt O14672 694-748)” displayed a stoichiometry N in assay [2] of 2.
Substance “endogenous TACE of Cα cells (CHO cells that express TGF-α) (enzyme)” showed a stoichiometry N in assay [3] of 2.
